Measured values taken from paper PMC5269733, “RNA helicase DDX3 maintains lipid homeostasis through upregulation of the microsomal triglyceride transfer protein by interacting with HNF4 and SHP” (Scientific Reports, 2017).

Biological target: T1, HA-tagged HNF4 (hepatocyte nuclear factor 4) (UniProt P41235 1-474)
T1 sequence (looked up): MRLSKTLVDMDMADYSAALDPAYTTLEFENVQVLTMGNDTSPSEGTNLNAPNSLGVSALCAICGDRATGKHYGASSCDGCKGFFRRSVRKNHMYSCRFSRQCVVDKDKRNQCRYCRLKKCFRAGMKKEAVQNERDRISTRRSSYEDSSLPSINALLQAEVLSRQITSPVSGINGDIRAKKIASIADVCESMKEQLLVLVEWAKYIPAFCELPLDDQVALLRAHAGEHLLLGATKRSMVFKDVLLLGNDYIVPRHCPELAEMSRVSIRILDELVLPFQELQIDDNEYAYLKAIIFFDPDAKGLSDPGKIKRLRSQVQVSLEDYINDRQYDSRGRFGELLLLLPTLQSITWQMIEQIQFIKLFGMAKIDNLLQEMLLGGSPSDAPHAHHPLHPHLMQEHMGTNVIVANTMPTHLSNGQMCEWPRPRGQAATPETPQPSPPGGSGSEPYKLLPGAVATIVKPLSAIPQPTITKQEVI
Test: cell-based or functional assay

luciferase activity of pGL2/MTP-Luc(-611/+87) in HuH7 cells, HA-HNF4 with increasing HA-DDX3 against HA-HNF4 alone (2.4- to 8.9-fold, DDX3 dose-dependent): 8.9 fold
B1: HA-tagged DDX3 (natural protein, UniProt O00571 1-662, looked up)
chain: MSHVAVENALGLDQQFAGLDLNSSDNQSGGSTASKGRYIPPHLRNREATKGFYDKDSSGWSSSKDKDAYSSFGSRSDSRGKSSFFSDRGSGSRGRFDDRGRSDYDGIGSRGDRSGFGKFERGGNSRWCDKSDEDDWSKPLPPSERLEQELFSGGNTGINFEKYDDIPVEATGNNCPPHIESFSDVEMGEIIMGNIELTRYTRPTPVQKHAIPIIKEKRDLMACAQTGSGKTAAFLLPILSQIYSDGPGEALRAMKENGRYGRRKQYPISLVLAPTRELAVQIYEEARKFSYRSRVRPCVVYGGADIGQQIRDLERGCHLLVATPGRLVDMMERGKIGLDFCKYLVLDEADRMLDMGFEPQIRRIVEQDTMPPKGVRHTMMFSATFPKEIQMLARDFLDEYIFLAVGRVGSTSENITQKVVWVEESDKRSFLLDLLNATGKDSLTLVFVETKKGADSLEDFLYHEGYACTSIHGDRSQRDREEALHQFRSGKSPILVATAVAARGLDISNVKHVINFDLPSDIEEYVHRIGRTGRVGNLGLATSFFNERNINITKDLLDLLVEAKQEVPSWLENMAYEHHYKGSSRGRSKSSRFSGGFGARDYRQSSGASSSSFSSSRASSSRSGGGGHGSSRGFGGGGYGGFYNSDGYGGNYNSQGVDWWGN
